Values quoted from earlier work in article PMC4078514, “A Bombesin-Shepherdin Radioconjugate Designed for Combined Extra- and Intracellular Targeting” (Pharmaceuticals, 2014).

Target: Hsp90 (Homo sapiens) (UniProt P07900)

Sequence of Shepherdin 79-83 (O15392 whole entry, looked up, tested part not stated): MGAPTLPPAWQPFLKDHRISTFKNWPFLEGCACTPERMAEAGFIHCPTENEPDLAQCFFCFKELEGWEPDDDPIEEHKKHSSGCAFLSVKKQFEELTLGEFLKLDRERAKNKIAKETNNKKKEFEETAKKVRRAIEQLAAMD

Substance: Shepherdin 79-83 (from UniProt O15392)
- Kd: 0.08 µM
